Source: publication PMC4753803

Target: death receptor 5 (DR5) (human (endogenous in MB231)), O14763
Test: co-IP + pull-down
Details: remark: other sources report otherwise

B1: caspase-8, Q14790 1-479 (enzyme)
chain: MDFSRNLYDIGEQLDSEDLASLKFLSLDYIPQRKQEPIKDALMLFQRLQEKRMLEESNLSFLKELLFRINRLDLLITYLNTRKEEMERELQTPGRAQISAYRVMLYQISEEVSRSELRSFKFLLQEEISKCKLDDDMNLLDIFIEMEKRVILGEGKLDILKRVCAQINKSLLKIINDYEEFSKERSSSLEGSPDEFSNGEELCGVMTISDSPREQDSESQTLDKVYQMKSKPRGYCLIINNHNFAKAREKVPKLHSIRDRNGTHLDAGALTTTFEELHFEIKPHDDCTVEQIYEILKIYQLMDHSNMDCFICCILSHGDKGIIYGTDGQEAPIYELTSQFTGLKCPSLAGKPKVFFIQACQGDNYQKGIPVETDSEEQPYLEMDLSSPQTRYIPDEADFLLGMATVNNCVSYRNPAEGTWYIQSLCQSLRERCPRGDDILTILTEVNYEVSNKDDKKNMGKQMPQPTFTLRKKLVFPSD
  ratio of caspase-8/DR5 in DR5 precipitates, Axl knocked down relative to siNEG: 1.73 fold
